# Measurements: publication PMC12324679
# What was measured:
# PuPuf4 (Pythium ultimum) = assay: MST; details: MST: 50 mM Tris pH 7.5, 150 mM NaCl, 10 mM MgCl2, 0.05% Tween 20, 25 C; EMSA: Beyotime EMSA/Gel-Shift Binding Buffer, 50 ng RNA, 25 C 30 min, 1% agarose gel
# [1] = test system: PuPuf4 R111A F147A K368A (Pythium ultimum); assay: MST; details: MST: 50 mM Tris pH 7.5, 150 mM NaCl, 10 mM MgCl2, 0.05% Tween 20, 25 C; EMSA: Beyotime EMSA/Gel-Shift Binding Buffer, 50 ng RNA, 25 C 30 min, 1% agarose gel
sequence,measurement,setting,value
GCCCAGUGCUCUGAAUGUCAAAGUGAAGAGAUUCACCAAGCGGCGGGUAAACGCG [H68 rRNA],Kd,PuPuf4 (Pythium ultimum),240 nM
same,Kd,[1],620 nM
